Numbering of substitutions follows the chain as printed.

Consider twelve molecules from patent US20220025021A1 (BETH ISRAEL DEACONESS MEDICAL CENTER, published 2022).

Holding throughout (test): cell-based or functional assay
Assay [1] concerns the target HIV-1 envelope glycoprotein of pseudovirus SC422661.8 (HIV-1).
Assay [2] deals with HIV-1 envelope glycoprotein of pseudovirus RHPA4259.7 (HIV-1).
For assay [3], the target named is HIV-1 envelope glycoprotein of pseudovirus DU172.17 (HIV-1).
Assay [4] has as its target HIV-1 envelope glycoprotein of pseudovirus BB1012-11.TC21 (HIV-1).
Assay [5] addresses HIV-1 envelope glycoprotein of pseudovirus CNE52 (HIV-1).
Assay [6] addresses HIV-1 envelope glycoprotein of pseudovirus 0260.v5.c36 (HIV-1).

B1: MS-115 (antibody)
VH: not shown
VL: DIVLTQSPLSLSVTPGESASISCKSSHSLIHGDRNNYLAWYVQKPGRSPQLLIYLASSRASGVPDRFSGSGSGKDFTLKISRVEAEDVGTYYCMQGRESPWTFGQGTKVDIKRTVAAPSVFIFPPSDEQLKSGTASVVCLLNNFYPREAKVQWKVDNALQSGNSQESVTEQDSKDSTYSLSSTLTLSKADYEKHKVYACEVTHQGLSSPVTKSFNRGEC
Consider B1, for which the “IC50 (neutralization in TZM.bl cells)” value is 0.202 µg/mL in assay [1]; 0.237 µg/mL in assay [2]; 1.83 µg/mL in assay [3]; 0.024 µg/mL in assay [4]; 0.489 µg/mL in assay [5]; 0.025 µg/mL in assay [6]. The “IC80 (neutralization in TZM.bl cells)” value amounted to 1.03 µg/mL in assay [1]; 0.647 µg/mL in assay [2]; 5.04 µg/mL in assay [3]; 0.106 µg/mL in assay [4]; 5.46 µg/mL in assay [5]; 0.067 µg/mL in assay [6].

B2: MS-95 (antibody)
VH: not shown
VL: B1 VL with L9H, A85T
Take B2: the “IC50 (neutralization in TZM.bl cells)” value came to 0.433 µg/mL in assay [1]; 0.208 µg/mL in assay [2]; 1.97 µg/mL in assay [3]; 0.044 µg/mL in assay [4]; 0.567 µg/mL in assay [5]; 0.022 µg/mL in assay [6]. For the same molecule, the “IC80 (neutralization in TZM.bl cells)” value was 2.88 µg/mL in assay [1]; 0.69 µg/mL in assay [2]; 7.07 µg/mL in assay [3]; 0.117 µg/mL in assay [4]; 5.05 µg/mL in assay [5]; 0.06 µg/mL in assay [6].

B3: MS-117 (antibody)
VH: not shown
VL: B1 VL with I2F, S18P
As to B3, the “IC50 (neutralization in TZM.bl cells)” value is 0.168 µg/mL in assay [1]; 0.201 µg/mL in assay [2]; 1.91 µg/mL in assay [3]; 0.03 µg/mL in assay [4]; 0.206 µg/mL in assay [5]; 0.021 µg/mL in assay [6]. Also, the “IC80 (neutralization in TZM.bl cells)” value is 1.33 µg/mL in assay [1]; 0.715 µg/mL in assay [2]; 6.49 µg/mL in assay [3]; 0.099 µg/mL in assay [4]; 1.73 µg/mL in assay [5]; 0.057 µg/mL in assay [6].

B4: MS-98 (antibody)
VH: not shown
VL: B1 VL with I2F, A85T
For the molecule B4, the “IC50 (neutralization in TZM.bl cells)” value in assay [1] came to 0.301 µg/mL; in assay [2], 0.146 µg/mL; in assay [3], 1.44 µg/mL; in assay [4], 0.025 µg/mL; in assay [5], 0.237 µg/mL; in assay [6] it was 0.019 µg/mL. Also, the “IC80 (neutralization in TZM.bl cells)” value came out at 2.14 µg/mL in assay [1]; 0.676 µg/mL in assay [2]; 6.33 µg/mL in assay [3]; 0.114 µg/mL in assay [4]; 1.91 µg/mL in assay [5]; 0.068 µg/mL in assay [6].

B5: MS-118 (antibody)
VH: not shown
VL: B1 VL with S18P
Regarding B5, the “IC50 (neutralization in TZM.bl cells)” value stood at 0.244 µg/mL in assay [1]; 0.164 µg/mL in assay [2]; 2.12 µg/mL in assay [3]; 0.036 µg/mL in assay [4]; 0.42 µg/mL in assay [5]; 0.019 µg/mL in assay [6]. In addition, the “IC80 (neutralization in TZM.bl cells)” value in assay [1] worked out at 2.05 µg/mL; in assay [2], 0.785 µg/mL; in assay [3] it was 8.29 µg/mL; in assay [4], 0.117 µg/mL; in assay [5] it was 3.4 µg/mL; in assay [6], 0.069 µg/mL.

B6: MS-99 (antibody)
VH: not shown
VL: B1 VL with I2F, G73D
As to B6, the “IC50 (neutralization in TZM.bl cells)” value in assay [1] was 0.294 µg/mL; in assay [2], 0.257 µg/mL; in assay [3] it was 1.95 µg/mL; in assay [4] it was 0.032 µg/mL; in assay [5] it was 0.219 µg/mL; in assay [6] it was 0.024 µg/mL. For the same molecule, the “IC80 (neutralization in TZM.bl cells)” value in assay [1] was found to be 1.46 µg/mL; in assay [2] it was 0.718 µg/mL; in assay [3] it was 7.14 µg/mL; in assay [4] it was 0.084 µg/mL; in assay [5] it was 1.8 µg/mL; in assay [6], 0.087 µg/mL.

B7: MS-93 (antibody)
VH: not shown
VL: B1 VL with G73D, A85T
In the case of B7, the “IC50 (neutralization in TZM.bl cells)” value in assay [1] is 0.333 µg/mL; in assay [2], 0.358 µg/mL; in assay [3] it was 3.24 µg/mL; in assay [4], 0.034 µg/mL; in assay [5], 0.636 µg/mL; in assay [6] it was 0.034 µg/mL. The “IC80 (neutralization in TZM.bl cells)” value in assay [1] came to 2.71 µg/mL; in assay [2], 1.6 µg/mL; in assay [3], 9.14 µg/mL; in assay [4], 0.118 µg/mL; in assay [5], 5.6 µg/mL; in assay [6], 0.116 µg/mL.

B8: MS-94 (antibody)
VH: not shown
VL: B1 VL with L9H, S18P, G73D, A85T
As for B8, the “IC50 (neutralization in TZM.bl cells)” value in assay [1] worked out at 0.315 µg/mL; in assay [2] it was 0.358 µg/mL; in assay [3] it was 3.03 µg/mL; in assay [4], 0.055 µg/mL; in assay [5] it was 0.455 µg/mL; in assay [6] it was 0.027 µg/mL. In addition, the “IC80 (neutralization in TZM.bl cells)” value came out at 1.23 µg/mL in assay [1]; 0.985 µg/mL in assay [2]; 11.2 µg/mL in assay [3]; 0.146 µg/mL in assay [4]; 5.18 µg/mL in assay [5]; 0.095 µg/mL in assay [6].

B9: MS-100 (antibody)
VH: not shown
VL: B1 VL with I2F, L9H, S18P, A85T
On to B9, for which the “IC50 (neutralization in TZM.bl cells)” value was found to be 0.184 µg/mL in assay [1]; 0.142 µg/mL in assay [2]; 1.56 µg/mL in assay [3]; 0.029 µg/mL in assay [4]; 0.147 µg/mL in assay [5]; 0.019 µg/mL in assay [6]. In addition, the “IC80 (neutralization in TZM.bl cells)” value in assay [1] came to 1.31 µg/mL; in assay [2], 0.694 µg/mL; in assay [3], 5.25 µg/mL; in assay [4] it was 0.095 µg/mL; in assay [5], 2.02 µg/mL; in assay [6], 0.053 µg/mL.

B10: MS-97 (antibody)
VH: not shown
VL: B1 VL with I2F, S18P, G73D, A85T
In the case of B10, the “IC50 (neutralization in TZM.bl cells)” value in assay [1] is 0.311 µg/mL; in assay [2], 0.183 µg/mL; in assay [3], 2.21 µg/mL; in assay [4], 0.04 µg/mL; in assay [5] it was 0.214 µg/mL; in assay [6], 0.028 µg/mL. The “IC80 (neutralization in TZM.bl cells)” value amounted to 2.09 µg/mL in assay [1]; 0.824 µg/mL in assay [2]; 7.54 µg/mL in assay [3]; 0.13 µg/mL in assay [4]; 1.62 µg/mL in assay [5]; 0.096 µg/mL in assay [6].

B11: MS-116 (antibody)
VH: not shown
VL: B1 VL with L9H, S18P
As to B11, the “IC50 (neutralization in TZM.bl cells)” value in assay [1] is 0.185 µg/mL; in assay [2], 0.187 µg/mL; in assay [3], 1.97 µg/mL; in assay [4], 0.03 µg/mL; in assay [5] it was 0.321 µg/mL; in assay [6], 0.024 µg/mL. The “IC80 (neutralization in TZM.bl cells)” value in assay [1] stood at 1.06 µg/mL; in assay [2], 0.663 µg/mL; in assay [3] it was 6.71 µg/mL; in assay [4] it was 0.139 µg/mL; in assay [5], 3.09 µg/mL; in assay [6] it was 0.067 µg/mL.

B12: MS-96 (antibody)
VH: not shown
VL: B1 VL with L9H, G73D
B12: the “IC50 (neutralization in TZM.bl cells)” value in assay [1] was 0.397 µg/mL; in assay [2] it was 0.252 µg/mL; in assay [3], 3.58 µg/mL; in assay [4], 0.047 µg/mL; in assay [5], 0.543 µg/mL; in assay [6], 0.026 µg/mL. Also, the “IC80 (neutralization in TZM.bl cells)” value in assay [1] turned out to be 2.82 µg/mL; in assay [2], 1.14 µg/mL; in assay [3], 13 µg/mL; in assay [4], 0.195 µg/mL; in assay [5], 5.36 µg/mL; in assay [6], 0.093 µg/mL.
